According to US12103951B2, “Use of CGRP receptor antagonists in neuroprotection and neurological disorders” (priority 2016, dated 2024):
Entries after “also recorded” stand apart in the source; their conditions may differ. Like-named read-outs stand apart in the source and are kept apart here. Marks after values point to notes of the source that are not given here.

How the values were obtained:
[1] = tested on: Total Cholesterol, Triglycerides, Low-density lipoprotein and High-density lipoprotein; assay type: in vivo, Sprague Dawley rats; parameters: HDL / LDL: unit not given here; details: for HDL / LDL / T. Chol / Trig: mean, n = 5; for effect on LDL levels in rats (words): normal rats, s.c. daily 14 days, especially male rats, every test dose 100 to 1000 mcg/kg
Experimental: (§1) Sprague Dawley rats were administered the CGRP antagonist daily via the subcutaneous route for a period of 14 days, resulting in the surprising effect of LDL lowering. Fifty six animals (36 males and 20 females) were distributed into four groups (consisting each of 5 males and 5 females per group and 4 extra males each for testing group as backups). The groups were as follows: G1—Control, G2—Low dose—100 mcg/kg, G3—Intermediate dose—300 mcg/kg, G4—High dose—1000 mcg/kg.
(§2) Rats from the treatment groups were dosed subcutaneously with CGRP receptor antagonists (SEQ ID NO: 1) reconstituted with normal saline at different dose levels per treatment group for 14 days. Control animals were dosed with the vehicle alone.
(§3) The acclimatization period was, at a minimum, 7 days. For the randomization, animals were selected and grouped based on stratified randomization by using body weights one day before dosing (day 0) using an Excel program. The route of administration of the antagonist was by a subcutaneous method. The frequency of the administration was daily for fourteen days. The dose volume was set at 5 ml/kg of body weight. The duration of the treatment was fourteen days with administration occurring approximately at the same time each day.
While preparing the dose formulation, required quantities of test item (i.e. CGRP antagonist) was weighed separately. The required volume of normal saline was added to the test item. A clear solution was obtained after addition of normal saline to test item. The test item was administered subcutaneously at the desired dose level once daily for up to 14 days. Homogeneity of the test item in the vehicle was maintained during administration.
(§4) The following observations were recorded: • 1. […] Body Weight • Body weight was recorded on day 1, 7, 11 and 15. • 3. Feed Consumption • Feed consumption was recorded daily and reported weekly. • 4. Blood Collection and Laboratory Investigations • Blood samples for were collected from all animals on day 15. The animals were fasted overnight before blood sampling but allowed access to water ad libitum for hematology and biochemistry. Blood samples were drawn from the retro-orbital plexus using a micro-hematocrit heparinized glass capillary tube. Blood samples were centrifuged (3500 rpm) and after centrifugation plasma was separated for further analysis.
Total Cholesterol, Triglycerides, Low-density lipoprotein and High-density lipoprotein parameters are shown in Tables 4 and 5, for male and female rats, respectively. Data from the LDL analysis is shaded.

[2] = 14-day subcutaneous rat study: mortality, clinical signs, body weight, feed consumption; assay type: in vivo, Sprague Dawley rats; details: s.c. daily 14 days
Experimental: as §1, §2, §3, §4

[3] = tested on: C-nociceptors; test: Spontaneous activity in C-nociceptors, rat crush-induced sciatic neuropathy (microneurography); details: 25 μg/Kg i.p.; for spontaneous activity in C-fibers (action potentials recorded in the sciatic nerve): after administration, FIG. 1
Experimental: To investigate the effects of a CGRP receptor antagonist on pathological spontaneous activity in C-nociceptors the following experiments were performed on Sprague-Dawly rats. Crush-inducing sciatic neuropathy was produced in 12 male Sprague-Dawley rats. Spontaneous activity in injured C-nociceptors was then detected with microneurography and the response to CGRP receptor antagonist was assessed under unblind conditions. This study aimed to assess the effect of the CGRP receptor antagonist, on electrophysiological measures of spontaneous activity in subpopulations of injured C-nociceptors in a model of neuropathic pain, and to investigate the effects of the CGRP receptor antagonist on pathological spontaneous activity in peripheral C-nociceptors.
All surgical procedures were performed under general anesthesia (ketamine 90 mg/kg+xylazine 10 mg/kg i.p. (intraperitoneal)). The sciatic nerve was exposed at mid-thigh level. A standardized injury was produced by crushing the nerve three times in succession with a very fine point forcep at a constant point, 90 mm from the tip of the third digit. The wound was then sutured by layers and disinfected with povidone iodine. The animals received an analgesic subcutaneous (s.c). dose of buprenorphine and were maintained in a warm environment until full recovery from the anesthetic, and were allowed to recover from the nerve injury for a minimum of 70 days.
CGRP receptor antagonist (SEQ ID NO: 1) was dissolved according to manufacturer's instructions in saline solution, at a final concentration of 25 μg/Kg. Volumes of the intraperitoneal (i.p.) injected bolus ranged from 0.48 to 0.58 ml.
Animals weighing 478±36 g (mean±SD) on the day of the recording were anesthetized with ketamine (90 mg/Kg) and xylazine (10 mg/Kg) injected i.p (intraperitoneal). Repeated administrations of one-half of the initial dose were performed as required to maintain the level of anesthesia, usually every hour.
Recordings of the sciatic nerve electrical activity were obtained inserting a tungsten microelectrode (FHC, Bowdoinham, ME, USA, nominal impedance 50-100KΩ, shaft Ø 175 μm (Ø=diameter)) into the sciatic nerve trunk with the aid of a micromanipulator. The recording electrode was carefully advanced into the nerve with the micromanipulator until characteristic neural audio signal could be heard. The method follows the same principles of the microneurographic technique employed in human patients.
The neural signals were first amplified with an isolated, high input impedance amplifier, band-pass filtered (maximum range 50-5000 Hz) and passed through a noise eliminator. The signal was then fed to an AM10 audio-monitor with noise clipper (Grass Technologies, Warwick, RI, USA) and to computers running separate software for collecting spontaneous and electrically evoked activity. Electrical stimuli were delivered to the cutaneous receptive field of the units by means of a constant current stimulator (DS7A, Digitimer, Welwyn Garden City, Hertfordshire, UK).
Electrical stimuli were triggered and the responses to electrical stimulation recorded and analyzed with a PC and PCI-6221M data acquisition board (National Instruments, […], USA) running QTRAC software (©Institute of Neurology, London, UK). Spontaneous activity was digitized at 20 kHz and recorded continuously on one of the computers running LabChart software (PowerLab Systems, ADInstruments Ltd., Bella Vista, New South Wales, Australia). Analysis was performed with software written by Neuroscience Technologies, Science Park of Barcelona, Spain, to detect and quantify spontaneous activity.
Trigger pulses were delivered to the stimulator at different frequencies necessary to induce ADS of conduction velocity of the recorded C-fibers. The digitized responses were stored on computer as raw data for off-line analysis.

[4] = female rats, 100 mcg/kg b.w. s.c. daily 14 days, day 15
[5] = female rats, 300 mcg/kg b.w. s.c. daily 14 days, day 15
[6] = female rats, 1000 mcg/kg b.w. s.c. daily 14 days, day 15
[7] = male rats, 100 mcg/kg b.w. s.c. daily 14 days, day 15
[8] = male rats, 300 mcg/kg b.w. s.c. daily 14 days, day 15
[9] = male rats, 1000 mcg/kg b.w. s.c. daily 14 days, day 15
[10] = 10 min before vs 10 min after administration, paired t-test, listed as CGRP receptor antagonist

Substance: NH2-Ala-Cys-Asp-Thr-Ala-Ala-Cys-Val-Leu-Gly-Arg-Leu-Ser-Gln-Glu-Leu-His-Arg-Leu-Gln-Thr-Tyr-Pro-Arg-Thr-Asn-Val-Gly-Ser-Lys-Ala-Phe-NH2 (H-ACDTAACVLGRLSQELHRLQTYPRTNVGSKAF-NH2; ends and bridges not checked) [SEQ ID NO: 1]
- other non-cholesterol related clinical biochemistry parameters ([1]; day 15, vs control, data not shown): none were significantly different from control
- HDL [1, 4]: 59.00
- LDL [1, 4]: 11.08
- T. Chol [1, 4]: 84.20 mg/dL
- Trig [1, 4]: 70.60 mg/dL
- HDL [1, 5]: 61.60
- LDL [1, 5]: 12.60
- T. Chol [1, 5]: 91.00 mg/dL
- Trig [1, 5]: 84.00 mg/dL
- HDL [1, 6]: 54.80
- LDL [1, 6]: 9.40
- T. Chol [1, 6]: 80.60 mg/dL
- Trig [1, 6]: 82.00 mg/dL
- HDL [1, 7]: 51.60
- LDL [1, 7]: 2.96
- T. Chol [1, 7]: 78.00 mg/dL
- Trig [1, 7]: 121.40* mg/dL
- HDL [1, 8]: 46.00
- LDL [1, 8]: 4.16
- T. Chol [1, 8]: 69.60 mg/dL
- Trig [1, 8]: 97.20 mg/dL
- HDL [1, 9]: 37.00
- LDL [1, 9]: 4.72
- T. Chol [1, 9]: 58.20 mg/dL
- Trig [1, 9]: 82.40 mg/dL
- effect on LDL levels in rats (words) [1]: lowered LDL concentrations in blood
- effect on LDL levels in rats (words) ([1]; listed as CGRP antagonist): LDL lowering
- effect on LDL levels in rats (words) ([1]; listed as CGRP receptor antagonist): substantial LDL lowering
- effect on LDL levels in rats (words) ([1]; listed as peptide CGRP antagonist): lowering the LDL levels
- food consumption ([2]; all study groups): normal
- body weight among the groups [2]: no statistically significant difference
- mortality or morbidity ([2]; 100, 300, 1000 mcg/kg): no mortality or morbidity
- clinical signs ([2]; high dose = 1000 mcg/kg, all animals normalized from day 12): no clinical signs were observed during the entire study period except for four males from the high dose group that showed lethargy on day 10
- SLI/10 min (Significant Latency Increase) [3, 10]: did not reveal a statistically significant effect; also recorded: No significant differences were observed
- TI (%) (Total Increase) [3, 10]: did not reveal a statistically significant effect; also recorded: No significant differences were observed
- spontaneous activity in C-fibers (action potentials recorded in the sciatic nerve) ([3]; rat crush sciatic neuropathy): preventing further spontaneous activity in the C-fibers
- spontaneous activity in C-fibers (action potentials recorded in the sciatic nerve) ([3]; rat crush sciatic neuropathy, listed as CGRP receptor antagonist): virtually no excitation observed
- spontaneous activity at long intervals after the administration ([3]; rat crush sciatic neuropathy, up to 90 min): less spontaneous activity
- Morbidity and mortality ([3]; rats, whole procedure): in good condition during the whole procedure
